Data as given in article PMC11012335.

Assays:
Assay in all cases: EMSA
[1] = system: Hfq H57A (Escherichia coli K-12 MG1655); details: EMSA: 20 mM Tris-HCl pH 7.6, 0.5 M NaCl, 1 mM EDTA, 1% glycerol, 20 min at 25 C, native PAGE in 0.5x TBE at 4 C
[2] = system: Hfq K56A (Escherichia coli K-12 MG1655); details: EMSA: 20 mM Tris-HCl pH 7.6, 0.5 M NaCl, 1 mM EDTA, 1% glycerol, 20 min at 25 C, native PAGE in 0.5x TBE at 4 C
[3] = system: Hfq K56A/H57A (Escherichia coli K-12 MG1655); details: EMSA: 20 mM Tris-HCl pH 7.6, 0.5 M NaCl, 1 mM EDTA, 1% glycerol, 20 min at 25 C, native PAGE in 0.5x TBE at 4 C
[4] = system: Hfq Y25D* (Escherichia coli K-12 MG1655); details: EMSA: 20 mM Tris-HCl pH 7.6, 0.5 M NaCl, 1 mM EDTA, 1% glycerol, 20 min at 25 C, native PAGE in 0.5x TBE at 4 C
[5] = system: Hfq Q8A (Escherichia coli K-12 MG1655); details: EMSA: 20 mM Tris-HCl pH 7.6, 0.5 M NaCl, 1 mM EDTA, 1% glycerol, 20 min at 25 C, native PAGE in 0.5x TBE at 4 C
[6] = target: Hfq K56A/H57A K56A;H57A (Escherichia coli K-12 MG1655) (UniProt P0A6X3); details: EMSA: 20 mM Tris-HCl pH 7.6, 0.5 M NaCl, 1 mM EDTA, 1% glycerol, 20 min at 25 C; native PAGE in 0.5x TBE at 4 C
[7] = target: Hfq Y25D* Y25D (Escherichia coli K-12 MG1655) (UniProt P0A6X3); details: EMSA: 20 mM Tris-HCl pH 7.6, 0.5 M NaCl, 1 mM EDTA, 1% glycerol, 20 min at 25 C; native PAGE in 0.5x TBE at 4 C
[8] = target: Hfq Q8A Q8A (Escherichia coli K-12 MG1655) (UniProt P0A6X3); details: EMSA: 20 mM Tris-HCl pH 7.6, 0.5 M NaCl, 1 mM EDTA, 1% glycerol, 20 min at 25 C; native PAGE in 0.5x TBE at 4 C
[9] = target: Hfq K56A K56A (Escherichia coli K-12 MG1655) (UniProt P0A6X3); details: EMSA: 20 mM Tris-HCl pH 7.6, 0.5 M NaCl, 1 mM EDTA, 1% glycerol, 20 min at 25 C; native PAGE in 0.5x TBE at 4 C
[10] = target: Hfq H57A H57A (Escherichia coli K-12 MG1655) (UniProt P0A6X3); details: EMSA: 20 mM Tris-HCl pH 7.6, 0.5 M NaCl, 1 mM EDTA, 1% glycerol, 20 min at 25 C; native PAGE in 0.5x TBE at 4 C

For DsrA, which binding signal (% of WT Hfq binding) ([1]; 43/174 nM Hfq monomer) is on record?
The binding signal (% of WT Hfq binding) was 66.5.

What about the binding signal (% of WT Hfq binding) ([2]; 43/174 nM Hfq monomer) of the same substance?
The binding signal (% of WT Hfq binding) was 24.4.

And the binding signal (% of WT Hfq binding) ([3]; 43/174 nM Hfq monomer)?
Its binding signal (% of WT Hfq binding) is 13.2.

And the binding signal (% of WT Hfq binding) ([4]; 43/174 nM Hfq monomer)?
Its binding signal (% of WT Hfq binding) is 163.

And the binding signal (% of WT Hfq binding) ([5]; 43/174 nM Hfq monomer)?
The binding signal (% of WT Hfq binding) was 46.9.

With “GGGAACACAUCAGAUUUCCUGGUGUAACGAAUUUUUUAAGUGCUUCUUGCUUAAGCAAGUUUCAUCCCGACCCCCUCAGGGUCGGGAUUU [DsrA]” as the substance, how does the binding signal (% of WT Hfq binding) [6] read?
Its binding signal (% of WT Hfq binding) is 13.2.

What about the binding signal (% of WT Hfq binding) [7] of the same substance?
Its binding signal (% of WT Hfq binding) is 163.

What about the binding signal (% of WT Hfq binding) [8] of the same substance?
Its binding signal (% of WT Hfq binding) is 46.9.

What about the binding signal (% of WT Hfq binding) [9] of the same substance?
The binding signal (% of WT Hfq binding) was 24.4.

And the binding signal (% of WT Hfq binding) [10]?
Its binding signal (% of WT Hfq binding) is 66.5.

Which results are given for RNA I FL?
binding signal (% of WT Hfq binding) ([1]; 130/260 nM Hfq monomer): 72.7; binding signal (% of WT Hfq binding) ([2]; 130/260 nM Hfq monomer): 36.1; binding signal (% of WT Hfq binding) ([3]; 130/260 nM Hfq monomer): 13.8; binding signal (% of WT Hfq binding) ([4]; 130/260 nM Hfq monomer): 125; binding signal (% of WT Hfq binding) ([5]; 130/260 nM Hfq monomer): 86.5
